Data on one protein can be found in patent US20120053320A1 (BOARD OF TRUSTEES OF MICHIGAN STATE UNIVERSITY, published 2012).

This data set deals with the molecule itself. Nature of the data set: SDS-PAGE, immunoblot and MALDI-TOF of purified and depolymerized pili (self-assembly).

B1: PilA pilin subunit of Geobacter sulfurreducens (mature PilA, ca. 6.5-7 kDa band from octyl-glucoside-depolymerized pili) (other)
chain: FTLIELLIVVAIIGILAAIAIPQFSAYRVKAYNSAASSDLRNLKTALESAFADDQTYPPES
notes: Native protein from strain PCA, denatured on SDS-PAGE and blotted; also called nanowire pilin subunit; PilA band
On to B1, for which the binding result is “binds”.
